B1: PGT121 (wild-type IgG, PGT121 heavy chain with PGT121 light chain) (antibody, V domains shown)
VH: QMQLQESGPGLVKPSETLSLTCSVSGASISDSYWSWIRRSPGKGLEWIGYVHKSGDTNYSPSLKSRVNLSLDTSKNQVSLSLVAATAADSGKYYCARTLHGRRIYGIVAFNEWFTYFYMDVWGNGTQVTVSS
VL: DISVAPGETARISCGEKSLGSRAVQWYQHRAGQAPSLIIYNNQDRPSGIPERFSGSPDSPFGTTATLTITSVEAGDEADYYCHIWDSRVPTKWVFGGGTTLTVL
notes: PGT121 heavy chain; PGT121 light chain; also called PGT121-H/PGT121-L; source: HEK 293T cells (methods; the results say 293F), transient transfection in 96-well microplates, supernatant used directly
B2: PGT128 (wild-type IgG, PGT128 heavy chain with PGT128 light chain) (antibody, V domains shown)
VH: QPQLQESGPTLVEASETLSLTCAVSGDSTAACNSFWGWVRQPPGKGLEWVGSLSHCASYWNRGWTYHNPSLKSRLTLALDTPKNLVFLKLNSVTAADTATYYCARFGGEVLRYTDWPKPAWVDLWGRGTLVTVSS
VL: QSALTQPPSASGSPGQSITISCTGTSNNFVSWYQQHAGKAPKLVIYDVNKRPSGVPDRFSGSKSGNTASLTVSGLQTDDEAVYYCGSLVGNWDVIFGGGTKLTVL
notes: PGT128 heavy chain; PGT128 light chain; also called PGT128-H/PGT128-L; source: HEK 293T cells (methods; the results say 293F), transient transfection in 96-well microplates, supernatant used directly

How the values were obtained:
Assay in all cases: ELISA; 200 ng gp120 coated on Maxisorb 96-well plates in PBS overnight at 4°C; blocked with PBS 5% dry milk; 25–50 µl antibody supernatant 1 h at RT; HRP goat anti-human IgG (H+L); TMB, OD450; absorbance normalised by the expression titer
Conditions in all cases: one partner purified
[1] = biological target: T1, HIV-1 BaL gp120 monomeric protein (HIV-1 subtype B, isolate BaL (clone not …, UniProt Q2MKA8, strain))
T1 construct: gp120 envelope glycoprotein (the gp120 product of Env gp160) of HIV-1 primary isolate BaL, full-length gp120, monomeric

[2] = biological target: T2, HIV-1 CAAN gp120 monomeric protein (HIV-1 subtype B, isolate CAAN …, UniProt Q5G5U4, strain)
T2 construct: gp120 envelope glycoprotein (the gp120 product of Env gp160) of HIV-1 primary isolate CAAN, full-length gp120, monomeric

[3] = biological target: T3, HIV-1 YU2 gp120 monomeric protein (HIV-1 clade B, primary isolate YU2, UniProt P35961)
T3 construct: gp120 envelope glycoprotein (the gp120 product of Env gp160) of HIV-1 primary isolate YU2, full-length gp120, monomeric

Binder	binding result [1]	binding result [2]	binding result [3]
B1	binds	binds	
B2		binds	binds

Reference: paper PMC3576407, “N332-Directed Broadly Neutralizing Antibodies Use Diverse Modes of HIV-1 Recognition: Inferences from Heavy-Light Chain Complementation of Function” (PLoS ONE, 2013)
